Results taken from patent publication US12697404B2, “PSMA-targeting conjugate and uses thereof” (priority 2021, dated 2026).
Where two headings read alike, the source gives them in different places.

How the values were obtained:
[1] = system: subcutaneous LNCaP tumors; test: ^212Pb-PSMA-OM-00214 biodistribution study in xenograft-bearing mice; format: in vivo, R2G2 mice; details: labeled with 212Pb, one 10 μCi dose i.v., 4 hours post-injection
Method: (§1) A study was carried out in order to assess the biodistribution of PSMA-OM-00214, labeled with ^212Pb at a specific activity of 10 μCi per 10 ng of conjugate, in R2G2™ mice bearing a human prostate cancer cell tumor.
(§2) 15 male R2G2™ mice, 7-8 weeks old and weighting 33.9±3.5 g at study initiation, were injected subcutaneously, into the right flank, with 10^6 LNCaP cells in 100 μL of RPMI-1640 medium/Matrigel™ (v/v: 1/1). The tumors were let grow until they reached 200-300 mm^3 (as determined by the formula: volume=0.5×length×width^2).
(§3) Then animals were randomized based on tumor size and a group of 6 mice received intravenously (into a tail vein) one 10 μCi dose of ^212Pb-PSMA-OM-00214 (10 μCi per 10 ng of conjugate, 100 μL injection volume).
(§4) The mice were sacrificed at 4 hour post-dose injection.
(§5) Blood, bladder, reproductive organs, small intestine, colon with caecum, spleen, pancreas, kidneys, stomach, liver, lung, heart, brain, femoral bone, abdominal fat, skeletal muscle, tail (as injection site) and LNCaP tumor were collected from each sacrificed mouse, weighted and transferred to individual tubes for automatic gamma counter.
(§6) The tubes were counted for two min. The background was automatically subtracted from the counts. A standard consisting of 5 μL of the solution injected to the mice was also counted for each group of mice and used for decay correction.
(§7) The percent injected dose per gram, denoted % ID/g, was calculated for each organ collected (mean±standard deviation).

[2] = as above; format: in vivo, R2G2 mice; details: male, R2G2, mouse, iv, 10 uCi, total radioactivity, labeled with 212Pb, 10 μCi per 10 ng of conjugate, one 10 μCi dose i.v.
Method: as §1, §2, §3, §4, §5, §6, §7

[3] = system: subcutaneous LNCaP tumors; test: Comparative biodistribution study in xenograft-bearing mice; format: in vivo, athymic nude mice; details: both labeled with 212Pb, one 10 μCi dose i.v., at 1 hour, 4 hours and 24 hours post-dose injection
Method: A study was carried out in order to compare the biodistribution of PSMA-OM-00214, labeled with ^212Pb at a specific activity of 10 μCi per 10 ng of conjugate, in athymic nude mice bearing a human prostate cancer cell tumor with that of a conjugate, denoted hereinafter “DOTAM-PSMA-617”, also labeled with ^212Pb and differing from PSMA-OM-00214 in that it comprises only one PSMA ligand instead of two.
Three batches of male athymic nude mice, 7-8 weeks old and weighting 27.90±2.6 g for the first batch, 27.90±2.5 g for the second batch and 29.50±2.5 g for the third batch, at study initiation, were injected subcutaneously, into the right flank, with 10^6 LNCaP cells in 100 μL of RPMI-1640 medium/Matrigel™ (v/v: 1/1). The tumors were let grow until they reached 200-300 mm^3.
The mice were divided into a plurality of groups each comprising 3 to 14 mice.
In any case, each mouse received intravenously either one 10 μCi dose of ^212Pb-PSMA-OM-00214 (10 μCi per 10 ng of conjugate, 100 μL injection volume) or one 10 μCi dose of ^212Pb-DOTAM-PSMA-617 (10 μCi per 10 ng of conjugate, 100 μL injection volume). […]
The tubes were counted for two min. […] Standards consisting of 5 μL of the solutions injected to the mice were also counted and used for decay correction.
as §7

NC(=O)CN1CCN(CC(=O)NCC2CCC(C(=O)NC(Cc3ccc4ccccc4c3)C(=O)NCCCCC(NC(=O)NC(CCC(=O)O)C(=O)O)C(=O)O)CC2)CCN(CC(N)=O)CCN(CC(=O)NCC2CCC(C(=O)NC(Cc3ccc4ccccc4c3)C(=O)NCCCCC(NC(=O)NC(CCC(=O)O)C(=O)O)C(=O)O)CC2)CC1 (centres unmarked) [PSMA-OM-00214]
tumor/kidney ratio [1]: satisfactory
uptake in all major non-tumor tissues [1]: very low uptake
tissue uptake at 4 h ([2]; LNCaP tumor, 4 hours post-injection, average, read-out: tumor uptake): > 20 %ID/g
tissue uptake at 4 h ([2]; kidneys, 4 hours, read-out: kidney uptake): ~10 %ID/g
tumor uptake and retention compared with DOTAM-PSMA-617 [3]: significantly higher
